Measured values taken from IntAct's records for PubMed 18676636.

B1: Forkhead box protein C1 (Homo sapiens), Q12948 (parent)
chain: MQARYSVSSPNSLGVVPYLGGEQSYYRAAAAAAGGGYTAMPAPMSVYSHPAHAEQYPGGMARAYGPYTPQPQPKDMVKPPYSYIALITMAIQNAPDKKITLNGIYQFIMDRFPFYRDNKQGWQNSIRHNLSLNECFVKVPRDDKKPGKGSYWTLDPDSYNMFENGSFLRRRRRFKKKDAVKDKEEKDRLHLKEPPPPGRQPPPAPPEQADGNAPGPQPPPVRIQDIKTENGTCPSPPQPLSPAAALGSGSAAAVPKIESPDSSSSSLSSGSSPPGSLPSARPLSLDGADSAPPPPAPSAPPPHHSQGFSVDNIMTSLRGSPQSAAAELSSGLLASAAASSRAGIAPPLALGAYSPGQSSLYSSPCSQTSSAGSSGGGGGGAGAAGGAGGAGTYHCNLQAMSLYAAGERGGHLQGAPGGAGGSAVDDPLPDYSLPPVTSSSSSSLSHGGGGGGGGGGQEAGHHPAAHQGRLTSWYLNQAGGDLGHLASAAAAAAAAGYPGQQQNFHSVREMFESQRIGLNNSPVNGNSSCQMAFPSSQSLYRTSGAFVYDCSKF

Variants of: B1
Details: with C1QBP

Row | effect of a mutation on the interaction | Variant
1 | disrupting interaction | MQARYSVSSPNSLGVVPYLGGEQSYYRAAAAAAGGGYTAMPAPMSVYSHPAHAEQYPGGMARAYGPYTPQPQPKDMVKPPYSYIALITMAIQNAPDKKITLNGIYQFIMDRSPFYRDNKQGWQNSIRHNLSLNECFVKVPRDDKKPGKGSYWTLDPDSYNMFENGSFLRRRRRFKKKDAVKDKEEKDRLHLKEPPPPGRQPPPAPPEQADGNAPGPQPPPVRIQDIKTENGTCPSPPQPLSPAAALGSGSAAAVPKIESPDSSSSSLSSGSSPPGSLPSARPLSLDGADSAPPPPAPSAPPPHHSQGFSVDNIMTSLRGSPQSAAAELSSGLLASAAASSRAGIAPPLALGAYSPGQSSLYSSPCSQTSSAGSSGGGGGGAGAAGGAGGAGTYHCNLQAMSLYAAGERGGHLQGAPGGAGGSAVDDPLPDYSLPPVTSSSSSSLSHGGGGGGGGGGQEAGHHPAAHQGRLTSWYLNQAGGDLGHLASAAAAAAAAGYPGQQQNFHSVREMFESQRIGLNNSPVNGNSSCQMAFPSSQSLYRTSGAFVYDCSKF [F112S]
